Data published in publication PMC11215335 (The Journal of Biological Chemistry, 2024).

What was measured:
Experiment in all cases: ELISA; polyreactivity assay, second experiment (Fig. 3D): antigen coated at constant concentration (proteins 5 ug/ml, bicarbonate buffer pH 9.6); mAb, Fab or scFv serially diluted two-fold from 34 nM Fv; 1 h at 37 C; alkaline phosphatase-conjugated secondary antibody; 'saturating Ag conditions'
Conditions in all cases: both partners purified
actin = actin (Bos taurus (muscle actin, assumed from …, UniProt P68138))
thyroglobulin = biological target: T1, thyroglobulin (Bos taurus (assumed from catalogue item …, UniProt P01267))
T1 construct: thyroglobulin, Sigma T1001; As I recall, this catalogue item is thyroglobulin from bovine thyroid; source: bought: Sigma (T1001)
T1 sequence (P01267 20-2769): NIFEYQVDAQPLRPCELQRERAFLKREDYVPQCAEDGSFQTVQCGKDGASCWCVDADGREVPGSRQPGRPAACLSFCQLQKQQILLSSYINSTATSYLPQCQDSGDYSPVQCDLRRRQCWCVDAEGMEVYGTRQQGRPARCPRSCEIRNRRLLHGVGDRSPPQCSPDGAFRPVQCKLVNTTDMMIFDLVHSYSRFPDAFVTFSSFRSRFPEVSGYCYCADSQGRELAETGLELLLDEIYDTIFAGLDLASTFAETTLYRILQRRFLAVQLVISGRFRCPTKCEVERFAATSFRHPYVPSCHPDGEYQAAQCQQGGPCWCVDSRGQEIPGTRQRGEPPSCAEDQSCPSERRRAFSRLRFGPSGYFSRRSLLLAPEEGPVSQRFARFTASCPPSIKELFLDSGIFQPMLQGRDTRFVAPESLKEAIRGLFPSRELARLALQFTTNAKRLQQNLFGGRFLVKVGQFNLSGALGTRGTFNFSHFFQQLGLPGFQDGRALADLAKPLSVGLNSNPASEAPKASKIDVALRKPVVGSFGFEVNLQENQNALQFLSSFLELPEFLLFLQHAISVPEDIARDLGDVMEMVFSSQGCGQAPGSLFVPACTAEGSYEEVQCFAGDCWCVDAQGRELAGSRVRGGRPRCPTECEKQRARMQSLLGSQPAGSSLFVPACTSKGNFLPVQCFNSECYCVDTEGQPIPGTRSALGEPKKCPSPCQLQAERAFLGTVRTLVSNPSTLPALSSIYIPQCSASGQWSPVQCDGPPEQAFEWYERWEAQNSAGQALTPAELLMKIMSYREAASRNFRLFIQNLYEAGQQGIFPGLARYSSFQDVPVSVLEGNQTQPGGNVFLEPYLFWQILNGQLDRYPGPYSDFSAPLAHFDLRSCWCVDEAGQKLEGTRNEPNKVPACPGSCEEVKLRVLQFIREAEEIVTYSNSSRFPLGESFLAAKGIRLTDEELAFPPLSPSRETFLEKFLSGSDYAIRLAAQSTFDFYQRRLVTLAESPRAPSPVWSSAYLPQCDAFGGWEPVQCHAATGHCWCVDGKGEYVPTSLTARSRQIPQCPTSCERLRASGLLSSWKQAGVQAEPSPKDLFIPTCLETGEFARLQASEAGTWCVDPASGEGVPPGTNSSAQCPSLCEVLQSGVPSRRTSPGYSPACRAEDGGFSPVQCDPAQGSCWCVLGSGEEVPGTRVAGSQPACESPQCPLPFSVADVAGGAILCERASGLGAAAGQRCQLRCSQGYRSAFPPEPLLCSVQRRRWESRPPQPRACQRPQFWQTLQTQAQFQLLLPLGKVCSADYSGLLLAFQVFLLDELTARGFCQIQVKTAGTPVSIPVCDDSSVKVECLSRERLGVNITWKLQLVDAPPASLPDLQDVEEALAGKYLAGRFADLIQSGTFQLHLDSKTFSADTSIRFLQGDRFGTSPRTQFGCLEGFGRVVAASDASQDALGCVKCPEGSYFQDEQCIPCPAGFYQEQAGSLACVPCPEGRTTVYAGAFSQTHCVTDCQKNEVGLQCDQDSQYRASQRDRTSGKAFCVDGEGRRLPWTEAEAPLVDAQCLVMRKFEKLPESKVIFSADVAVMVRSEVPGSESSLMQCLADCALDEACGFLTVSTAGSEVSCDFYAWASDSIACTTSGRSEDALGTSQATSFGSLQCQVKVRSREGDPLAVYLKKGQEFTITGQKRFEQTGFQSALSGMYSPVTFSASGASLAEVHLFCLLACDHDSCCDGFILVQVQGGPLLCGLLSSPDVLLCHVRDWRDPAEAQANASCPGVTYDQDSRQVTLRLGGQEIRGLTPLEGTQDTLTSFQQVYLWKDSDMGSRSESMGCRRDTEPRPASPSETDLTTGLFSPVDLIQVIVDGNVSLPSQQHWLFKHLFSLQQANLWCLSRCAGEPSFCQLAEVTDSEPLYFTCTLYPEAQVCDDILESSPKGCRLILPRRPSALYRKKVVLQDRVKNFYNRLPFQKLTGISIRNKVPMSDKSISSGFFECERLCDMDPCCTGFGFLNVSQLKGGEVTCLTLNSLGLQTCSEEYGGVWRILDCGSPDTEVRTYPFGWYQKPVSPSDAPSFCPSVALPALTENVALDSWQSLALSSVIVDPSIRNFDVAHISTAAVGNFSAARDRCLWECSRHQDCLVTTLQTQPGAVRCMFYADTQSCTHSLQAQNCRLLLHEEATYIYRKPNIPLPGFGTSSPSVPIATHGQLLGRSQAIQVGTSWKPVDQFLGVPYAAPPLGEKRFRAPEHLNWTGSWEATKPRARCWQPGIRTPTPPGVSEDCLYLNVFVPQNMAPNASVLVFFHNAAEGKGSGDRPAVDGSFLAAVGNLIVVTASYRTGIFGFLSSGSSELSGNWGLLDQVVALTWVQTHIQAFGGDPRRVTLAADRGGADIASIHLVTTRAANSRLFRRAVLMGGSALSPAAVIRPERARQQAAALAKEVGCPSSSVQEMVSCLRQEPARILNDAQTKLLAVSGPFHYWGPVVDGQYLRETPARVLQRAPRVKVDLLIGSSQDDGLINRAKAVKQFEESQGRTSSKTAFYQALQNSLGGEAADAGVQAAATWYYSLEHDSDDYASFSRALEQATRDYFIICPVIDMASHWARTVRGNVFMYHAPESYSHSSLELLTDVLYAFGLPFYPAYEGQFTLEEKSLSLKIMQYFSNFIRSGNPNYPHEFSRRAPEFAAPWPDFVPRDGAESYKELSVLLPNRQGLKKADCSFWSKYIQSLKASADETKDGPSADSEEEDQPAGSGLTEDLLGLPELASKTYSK

tubulin = biological target: T2, tubulin (Sus scrofa (brain tubulin, assumed from …, UniProt P02550;P02554))
T2 construct: tubulin alpha chain; Cytoskeleton T240-A; tubulin beta chain; As I recall, this catalogue item is tubulin purified from porcine brain (a mix of isotypes); source: bought: Cytoskeleton, Inc (T240-A)
T2 sequence (P02554 whole entry, looked up, chain 1 of 2): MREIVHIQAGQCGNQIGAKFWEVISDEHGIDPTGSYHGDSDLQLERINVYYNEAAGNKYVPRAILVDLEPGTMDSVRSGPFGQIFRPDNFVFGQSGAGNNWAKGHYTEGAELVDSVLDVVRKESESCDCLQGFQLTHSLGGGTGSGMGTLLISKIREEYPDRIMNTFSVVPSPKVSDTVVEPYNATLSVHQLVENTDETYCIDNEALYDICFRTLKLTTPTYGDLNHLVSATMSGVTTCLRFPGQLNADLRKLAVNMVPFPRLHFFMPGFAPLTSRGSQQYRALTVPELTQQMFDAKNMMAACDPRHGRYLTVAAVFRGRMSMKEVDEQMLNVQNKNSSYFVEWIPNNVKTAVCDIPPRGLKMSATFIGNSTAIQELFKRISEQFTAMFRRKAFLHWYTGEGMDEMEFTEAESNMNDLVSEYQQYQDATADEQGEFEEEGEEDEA
T2 sequence (P02550 whole entry, looked up, chain 2 of 2): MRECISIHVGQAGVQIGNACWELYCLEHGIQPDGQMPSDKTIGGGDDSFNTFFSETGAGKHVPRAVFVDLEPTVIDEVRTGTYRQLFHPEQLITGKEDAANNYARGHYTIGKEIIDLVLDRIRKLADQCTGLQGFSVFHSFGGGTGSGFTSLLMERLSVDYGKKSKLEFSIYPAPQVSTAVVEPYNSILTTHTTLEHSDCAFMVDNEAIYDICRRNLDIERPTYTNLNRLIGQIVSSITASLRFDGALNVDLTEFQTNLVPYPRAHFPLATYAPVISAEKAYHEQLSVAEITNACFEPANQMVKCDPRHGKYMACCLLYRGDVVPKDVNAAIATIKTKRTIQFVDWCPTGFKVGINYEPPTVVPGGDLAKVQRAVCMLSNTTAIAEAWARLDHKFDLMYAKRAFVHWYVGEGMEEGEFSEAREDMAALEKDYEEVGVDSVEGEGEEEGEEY

Measured: binding result

B1: single-chain Fv antibody fragment 18B7 (scFv, V domains shown)
VH: DVKLVESGGGLVKLGGSLKLSCVASGFTCSSYFMSWVRQTPEKRLELVAMINNNGDKTYYPDTVKGRFTISRDNAKNTLYLQMSSLKSEDTAMYYCARRDGTFGNHFDYWGQGTTLTVSS
VL: DVVMTQTPLSLPVSAGDQASISCRSSQSLCHSNGNTYLHWYLQKPGQSPKLLIYKVSNRFSGVPDKFSGSGSGTDFTLKISRVEAEDLGVYFCSQSTHVPWTFGGGTKLEIK
notes: VL of mAb 18B7; 15-residue linker, printed as (GGS)5 in the methods; the results call it (Gly4Ser)3; VH of mAb 18B7; A pelB leader was appended to the N-terminus; The tandem FLAG and His6 tags are at the C-terminus; also called scFv 18B7; scFv; source: E. coli BL21 STAR (pET22b+); also soluble in the periplasm; not shown: His6, C-terminal, kept
binds: actin | thyroglobulin | tubulin
